For assay [1], the target named is HLA-A*80:01. The assay is described as follows: IEDB peptide-MHC binding, purified MHC/direct/fluorescence; filed as Kd, often an IC50 or EC50 that approximates it; ≥ and ≤ were set here for values at or beyond the usual limits of such assays.
The target in assay [2] is HLA-A*26:02. Described as above. Particulars: source organism: Yellow fever virus.
Assay [3] concerns the target HLA-B*14:02. The assay is described as above. Particulars: source organism: Homo sapiens.
The target in assay [4] is HLA-B*08:02. The assay is described as above.
Assay [5] deals with HLA-B*40:01. The description is as above. Particulars: source organism: Mycobacterium tuberculosis.
The target of assay [6] is HLA-B*57:01. The description is as above.
The target in assay [7] is HLA-B*58:01. The assay is described as above.
Assay [8] concerns the target HLA-A*11:01. The description is as above.
Assay [9] has as its target HLA-B*08:01. The assay is described as above.
The target in assay [10] is HLA-A*68:02. The description is as above.
The target of assay [11] is HLA-B*07:02. The description is as above.
The target in assay [12] is HLA-B*46:01. The description is as above.
In assay [13] the target is HLA-A*31:01. The assay is described as above.
The target in assay [14] is HLA-B*27:05. Described as above. Particulars: source organism: Mycobacterium tuberculosis.
The target of assay [15] is HLA-B*08:03. The assay is described as above. Particulars: source organism: Mycobacterium tuberculosis str. Haarlem.
In assay [16] the target is HLA-A*02:01. The description is as above. Particulars: source organism: Mycobacterium tuberculosis.
In assay [17] the target is HLA-B*48:01. The description is as above.
For assay [18], the target named is HLA-A*01:01. The assay is described as above.
Assay [19] has as its target HLA-B*15:17. The description is as above. Particulars: source organism: Mycobacterium tuberculosis.
For assay [20], the target named is HLA-A*69:01. The assay is described as above.
Assay [21] concerns the target HLA-A*26:03. The assay is described as follows: IEDB peptide-MHC binding, purified MHC/competitive/fluorescence; filed as Kd, often an IC50 or EC50 that approximates it; ≥ and ≤ were set here for values at or beyond the usual limits of such assays. Particulars: source organism: Mycobacterium tuberculosis variant bovis BCG str. Pasteur 1173P2.
The target of assay [22] is HLA-A*26:02. The assay is described as above.
Assay [23] deals with HLA-A*02:06. Described as above. Particulars: source organism: Mycobacterium tuberculosis variant bovis BCG str. Pasteur 1173P2.
Assay [24] has as its target HLA-B*15:01. The description is as above. Particulars: source organism: Mycobacterium tuberculosis variant bovis BCG str. Pasteur 1173P2.
In assay [25] the target is HLA-B*18:01. The assay is described as above. Particulars: source organism: Mycobacterium tuberculosis variant bovis BCG str. Pasteur 1173P2.
Assay [26] addresses HLA-B*51:01. In words: IEDB peptide-MHC binding, purified MHC/direct/fluorescence; filed as Kd, often an IC50 or EC50 that approximates it; ≥ and ≤ were set here for values at or beyond the usual limits of such assays. Particulars: source organism: Mycobacterium tuberculosis.
For assay [27], the target named is HLA-A*03:01. The description is as above. Particulars: source organism: Mycobacterium tuberculosis.
In assay [28] the target is HLA-A*26:01. The assay is described as above. Particulars: source organism: Mycobacterium tuberculosis str. Haarlem.
The target of assay [29] is HLA-B*15:01. The description is as above.
The target of assay [30] is HLA-B*18:01. The assay is described as above. Particulars: source organism: Mycobacterium tuberculosis.
In assay [31] the target is HLA-B*15:09. The assay is described as follows: IEDB peptide-MHC binding, purified MHC/competitive/fluorescence; filed as Kd, often an IC50 or EC50 that approximates it; ≥ and ≤ were set here for values at or beyond the usual limits of such assays.
The target in assay [32] is HLA-B*39:01. Described as above.
Assay [33] deals with HLA-C*07:02. In words: IEDB peptide-MHC binding, purified MHC/direct/fluorescence; filed as Kd, often an IC50 or EC50 that approximates it; ≥ and ≤ were set here for values at or beyond the usual limits of such assays. Particulars: source organism: Variola virus.
Assay [34] addresses HLA-B*27:05. In words: IEDB peptide-MHC binding, purified MHC/competitive/fluorescence; filed as Kd, often an IC50 or EC50 that approximates it; ≥ and ≤ were set here for values at or beyond the usual limits of such assays. Particulars: source organism: Variola virus.
In assay [35] the target is HLA-A*26:01. Described as above. Particulars: source organism: Variola virus.
For assay [36], the target named is HLA-A*02:01. The description is as above. Particulars: source organism: Variola virus.
In assay [37] the target is HLA-B*15:17. The assay is described as above. Particulars: source organism: Variola virus.
Assay [38] deals with HLA-B*15:03. The assay is described as follows: IEDB peptide-MHC binding, purified MHC/competitive/radioactivity; filed as Kd, often an IC50 or EC50 that approximates it; ≥ and ≤ were set here for values at or beyond the usual limits of such assays. Particulars: source organism: Vaccinia virus WR.
The mark [39] stands for this setting: source organism: Mycobacterium tuberculosis str. Haarlem.
[40] abbreviates: source organism: Mycobacterium tuberculosis.
[41] abbreviates: source organism: Camelpox virus CMS.
The mark [42] stands for this setting: source organism: Mycobacterium tuberculosis C.
The mark [43] stands for this setting: source organism: Camelpox virus M-96.

A value given as a limit tells only on which side of the number the result lay.

By Kd is commonly meant the concentration at which binding is half-saturated. For EVDQTKIQY, the dissociation constant Kd was no less than 20 µM in [1] (source organism: Yellow fever virus) and 1.61 µM in [2].
Sequence LQRIHAEI gave a dissociation constant (Kd) in [3] of 0.133 µM.
On to KVMVICYAY, for which the equilibrium dissociation constant (Kd) in assay [4] (setting [39]) is no less than 20 µM; in assay [5], no less than 20 µM; in assay [6] (setting [40]), no less than 20 µM; in assay [7] (setting [40]), 0.705 µM; in assay [8] (setting [40]) it was 0.492 µM; in assay [9] (setting [39]), no less than 20 µM. The Kd in assay [10] (setting [40]) is no less than 20 µM; in [11] (setting [40]), no less than 20 µM; in assay [12] (setting [40]), no less than 20 µM; in assay [13] (setting [40]), 4.16 µM; in assay [14], no less than 20 µM; in assay [15], no less than 20 µM. The Kd in assay [16] was no less than 20 µM; in [17] (setting [40]), no less than 20 µM; in assay [18] (setting [40]), 11.8 µM; in [19], 6.9 µM; in assay [20] (setting [40]) it was no less than 20 µM; in [21], no less than 20 µM. In addition, the Kd in assay [22] (source organism: Mycobacterium tuberculosis variant bovis BCG str. Pasteur 1173P2) was no less than 20 µM; in assay [23], no less than 20 µM; in assay [24], no less than 20 µM; in [25], 3.29 µM.
Turning to ITDFNIDTY, the dissociation constant (Kd) was 0.307 µM in assay [1] (setting [41]) and no more than 0.001 µM in assay [18] (setting [41]).
With RPAPATGAL, the equilibrium dissociation constant (Kd) in assay [26], in assay [4] (setting [39]), in assay [5], in assay [6] (setting [40]), in assay [7] (setting [40]) and in assay [8] (setting [40]) was no less than 20 µM in each case. Further, the equilibrium dissociation constant (Kd) in assay [9] (setting [39]), in assay [12] (setting [40]), in assay [13] (setting [40]), in [27], in assay [14] and in [28] was no less than 20 µM in each case. The Kd in [29] (setting [40]), in assay [16], in [17] (setting [40]), in assay [18] (setting [40]), in assay [19] and in assay [30] was no less than 20 µM throughout. Besides, the dissociation constant Kd in assay [20] (setting [40]) was 0.739 µM; in assay [31] (setting [42]) it was 0.0786 µM; in assay [32] (setting [42]) it was 0.0042 µM.
As to SQIETGTPF, the dissociation constant Kd in assay [4] (source organism: Variola virus), in assay [6] (setting [43]), in [7] (setting [43]), in assay [8] (setting [43]), in [9] (source organism: Variola virus) and in assay [10] (setting [43]) was no less than 20 µM throughout. In addition, the Kd in [11] (setting [43]) was no less than 20 µM; in assay [12] (setting [43]), 3.06 µM; in [13] (setting [43]), no less than 20 µM; in assay [29] (setting [43]), 0.014 µM; in assay [17] (setting [43]), 1.65 µM; in [18] (setting [43]), no less than 20 µM. Besides, the dissociation constant (Kd) in [33] is no less than 20 µM; in assay [20] (setting [43]) it was no less than 20 µM; in assay [22] (source organism: Variola virus) it was 0.0008 µM; in [31] (source organism: Variola virus), 0.0673 µM; in [34], no less than 20 µM; in [35], 1.79 µM. For the same sequence, the Kd in assay [36] was no less than 20 µM; in assay [37], no less than 20 µM; in assay [32] (source organism: Variola virus), 0.0146 µM; in assay [38], 0.00133 µM.

For the origin of these results see the Immune Epitope Database (IEDB).
